Source: a protein production outcome set (Wang et al. 2014)

Experiment: label from the status in PepcDB records

With “MQQKDAVPDTAKKLKAPLTGLKTEQKVTERRPVAVVVNNHPKARPQSGLSKADIVIEALAEGQITRFLAIFQSQMPETVGPVRSAREYFVTLSNGFDSIFVHHGWSPGAKKQLESGAADYMNGLDFDGSLFWRADFSKPPHNSYTSYDYIKKAAEQKGYKLKQETNPLLFQTSDAKPANESYNVRVDYGTNNVTNLVEYNYDKKAEFYTRSSDGVITTDRETGKPVAMQNIFIVEASHHIIDQDGRRDIDLESGGKGLLFQHGNVIETDWKQVNGRIVPVKDGKWLPFVPGKTWINIVPDLDAASISKGEGVLEHHHHHH” the protein production was “not failed”.

With “YDAILLIDYRQRRIIDCNQTAQKLLGYSKEELRLLPPYRLLRAMSARSIKPIFQDILAKRREIHDITLLSQSGEQLLGQLSFNTLQEED” the protein production was “failed”.

For “MKLIWSPETASKAYIDTVKSCENLGTPGAAELVAAMAAGWNANLIVETWSEGETIAISVGLNIASRHTNGRHICIVPNARSQTAYLQAMAEQSCSNLPETIIMNEEGEELEHTMQTLQGIDFLVVDWDQKDFAANVLRNAVFGSRGAVVVCRSGYRRSTSCFSWTKAFSDRNVVRTVTLPVSGGLEIAHVAAARSSGKSDNNSNKRKWIKHFDQRSGEEHVIRK”, the protein production was “failed”.

For “MLKAFRKNQHPVAIPSTLPDGSAWPRISIVTPSYNNAKYIEETIISVLEQGYPDVEHIIVDGASKDGTAAILDRYRGHVARIIQEPDTGQSNAINKGMRLATGEIVTWLNSDDLLAPGALAAVAMAFHMSGADMVAGGCQLYRNGGYLGTHLTSCADGTLPAEEISDLYGGWQTGKFFYQPEVMFTRDLWQRAGGQVREDLHYCMDVEMWLRFASCGARLHVIGAPVAMFRLHEEQKTNNPDASPDEYIPVANAWRTTHGLPPITRTTLPPPPPPLKVAFVNDIGFQYGAGIAHQRLFTAVSSAGHTVRGWATGFQSPRDVFEATAARIISEIEAFEPDVVVCGNLHCTIADSDMLVRLTDRWPTCFCLHDLWLLTGHCPHPGFLDCVRHLAGCDHTCPSPDTYPTIAAGDIRKAWDAKREVMARDTFLALANSNWTRAQHDGCTTPGHEARLLRLGCDESIFHPGDRLEARRQLGLDMDAFVVLMPMVDFSSPFKGSVEGLEALSGAGLENLQVICFGVVEQEMIARFPILTALGYLHDPEAVATAYRAADVVVSFSHAETFGQTLMEAACCGIPSLAYRCTGLPDAVVDGVSGFLVDETPDALITRLHQLHADANLRASLGTWAALYARNSRCLQAEYHSFHTNLEEAGLLAPGRLGKNIFFAHTEAHEAEPSIPVSDPRPGSAFKNWLRRELPTPVWMALRRVYRGTKSRLGMHP”, the protein production was “failed”.

In the case of “MGNLKLALIIKSPRDDVEFLLEKQKQPAKFGDEAYDSFVDSDLWDLPSTDLQALEDGVRSGFSISILDSCSEEVDLMNFDFESTLILLLENLGIDISDVGEWRFVRSVEEPEFGPDSCVRTCFISGKLLNTDQSLQDNCKWMSMESCFDSLIDVKLGSDRVGPLVLLGLGDGSRQSMKHKLSSSLAIQEYPPGVMIVPMHSKTLKPFRTTNLVVFAPENGLGDHQGADFVAHGDALIVDPGCLSKLHVELKKIVDALPRKLIVFVTHHHRDHIDGLSAIQESNPDAILVAHAKTRHRIGGWSGNYTPVSGGENIYVNGQKLTVIFAPGHTDGHMSLLHTSTQSLIVGDHCVGQGSAFLDIRAGGNMTDYFQSTYKFLELSPNVVIPMHGRVNLWPKHMLCGYLKNRRSREKSILKATVDGAQTLYDIVAKVYSSVDRKFWWAASSNVRLHIEKLAVENKLPEGFSIQKFKASCGLRFAIRCTVGYIISKIPFKINKPGFIMSVMAAGAGYFLLYTSKKKNQIES”, the protein production is reported as “failed”.

For “MVTAGKTLGKRMSTMRHRSCFSLFAGLALVFCLAVGTAAAGPVQVDIYGPGQGSLNLAMAAPLGPTPGTPVSGMGVKLNGFINENLSFLPFLRLVDQRAILGGTVMQGYKSPDIDLKRFQLAGADLVVTAGWPQGDASGSFVELRVYEALSGKLVFGKAYSHVEDGLLPNVADRFCSDLMKALTGRGEFFKSTLAFVKHDGKNKRDVWLVKPVGRDLRKITNLPGEALSPSWSPDGRFVVFSHFDDRSHALGVWDRLTRQVQRIRFPGNTVIGPCFLPDNKVAVSLSSGRNPDIFLLNHLFKKERELEANPSINVSPSFDATGTKMAFTSSRMGGPQVFMKDMTTGQVTRISKTGSYNTEPSISPDGTLVAFTKMTDTGHRIFVYDMVTQSERQVSFGPGRDEQPSFAPDSYFLAFTSNRNGAQQIFLVTRHGGDPKRVPTGPGDASFARWGMIPE”, the protein production was “failed”.

With “MRSSQGSGADPGARGRVDQRLRRGARPAPTSPHSPAKTNHPLRAAIIGGGPGGLYTAALLKRLAPDREVTVYERNAPDDTFGFGVVLSDETLGGIEHADPTVYEALKAHFVRWDDIDIVHRHTRHTSGGHRFAALGRRRLLEILHDRCRDLGVELRFRTEAPPPDRLARTHDLVVAADGVHSATREAYRDVFRPRLTPHRCRYIWLAADFAFDAFRFEIAETEHGVMQLHGYPFAPDASTVIVEMREEVWRAAGFDELDETESTARCAKIFADALGGRPLRSNKSAWTTFRTVVNERWSHGNIVLLGDAAHTAHFSIGSGTKLAVEDALALAACLAERPTLQEALTAYEEERRPVVASTQRAAKASLEWFEDLDRYLAQPPRQFAFNLLTRSRRVTHENLRLRDAGFTESVEREFGCPPDTPPMFTPFRLRGLTLRNRVVVSPMDMYSATDGVPGDFHLVHLGARALGGAALVMTEMVCVSAEGRITPGCAGLYTGRQGEAWRRITDFVHDGAPGTAIGVQLGHSGRKGSTRLMWEGMDEPLPDGNWPLVAPSPLPYRPGGQVPRELSRAQLADVREQFRAAAERAAGAGFDLLELHCAHGYLLSGFLSPLTNHRTDAYGGSPENRLRFPLEVFDAVREVWPDERPMTVRISATDWAEGGTSAEEAVEIARAFAAHGADAIDVSTGQVVSGERPEFGRSYQTPYADRIRHEAGVPVIAVGAISSWDDVNSLVLAGRTDLCALARPHLYDPHWTLHAAAEQGYDGPGARWPAPYRAGSRPPRTGRTDAPRPRLTLHGPGQDG” the protein production was “failed”.

In the case of “MAQRKNAKSSGNSSSSGSGSGSTSAGSSSPGARRETKHGGHKNGRKGGLSGTSFFTWFMVIALLGVWTSVAVVWFDLVDYEEVLGKLGIYDADGDGDFDVDDAKVLLGLKERSTSEPAVPPEEAEPHTEPEEQVPVEAEPQNIEDEAKEQIQSLLHEMVHAEHVEGEDLQQEDGPTGEPQQEDDEFLMATDVDDRFETLEPEVSHEETEHSYHVEETVSQDCNQDMEEMMSEQENPDSSEPVVEDERLHHDTDDVTYQVYEEQAVYEPLENEGIEITEVTAPPEDNPVEDSQVIVEEVSIFPVEEQQEVPPETNRKTDDPEQKAKVKKKKPKLLNKFDKTIKAELDAAEKLRKRGKIEEAVNAFKELVRKYPQSPRARYGKAQCEDDLAEKRRSNEVLRGAIETYQEVASLPDVPADLLKLSLKRRSDRQQFLGHMRGSLLTLQRLVQLFPNDTSLKNDLGVGYLLIGDNDNAKKVYEEVLSVTPNDGFAKVHYGFILKAQNKIAESIPYLKEGIESGDPGTDDGRFYFHLGDAMQRVGNKEAYKWYELGHKRGHFASVWQRSLYNVNGLKAQPWWTPKETGYTELVKSLERNWKLIRDEGLAVMDKAKGLFLPEDENLREKGDWSQFTLWQQGRRNENACKGAPKTCTLLEKFPETTGCRRGQIKYSIMHPGTHVWPHTGPTNCRLRMHLGLVIPKEGCKIRCANETRTWEEGKVLIFDDSFEHEVWQDASSFRLIFIVDVWHPELTPQQRRSLPAI”, the protein production is reported as “failed”.

For “MTGKEEISSKYDDYSLKEVPKDSRYGFFNVFLVFSSVYGAIAVIWAGGALGYGLTFSQAIIAVLSGTVVLGILGSLTAAVGAYSGLSTYVMWRHPLGRWGGKIAGLLLITITTGIGWYAVETWLFGIVMSEIFPNNPFFSVGVAAIWGGILMTIMTYVGYRMLSFLSYFTIPFHIWLIAIGIAIVLALKGGFHTVMAAVPTSHMSLLDGISATIGLYSAGTIISPDISRFAKSAKDAGYAWFAHIIFLYPFLILGGVAIVLATGSYLITNAMLELGMGVGVLLIIVFGQFIINTDNLYSGSLSLVNLIPMRREIASVINGVIGTAIAAYVGFSAGSSITPFENFISLLGDFLPAMGGIVLADFYIVKKYVNKIQDPHKRYEFVPNNKYYNINIAGILALALGSIIGYFVNAGIPAINSLVTGFLSYIIIYYIIKAMGKSPEILPFNYEGGILR”, the protein production was “failed”.

With “AAQEKVVKLKIVQTSDVHGNYYPYNFITRKDWQGSLARIYAFVEKEREQYKENLILLDNGDILQGQPTAYYYNYIDTVSPHLCAEMMNYMKYDAGNMGNHDVETGRAVFDRWINTCDFPVLGANIIDISTGEPHLPPYKVMERDGVKIVILGMITPAIPAWLSENLWKGLRFDDMEETARKWMKIIREKENPDLMIGLFHAGQEAFKMSGKYNENASLSVAKNVPGFDIVLMGHDHARECKKVMNVAGDSVLVIDPASNGIVLSNIDVTLKLKDGKVRSKDIKGVLTETKDYGISEDFMKNFAPQYDTVRNFVSK” the protein production was “failed”.

In the case of “MQARDIMTTTVVSISPDVSVRHAVAMMLQNHVSGLPVVDDHGRVCGMVTEGDLLLRREVRYAPRPARAPELISEIDLERYIGSNGWCVADVMSQDVIVARPDSEVSDIAESLQVHRIKRLPIVEDERLVGIVSRRDILRVIAEAPTTILPRGDEAIRLAVRTRLRSDLGLTPQKVHVSVRNGQVTVDGQVESELKRRAIKVLVEGLGGIAGYKDGLLVSPAHIQD”, the protein production is reported as “failed”.

For “MASLISFWLFFALSLLQPQQRQFLASKPWQDWLLDGVSLGIQGAIIPLLQLLLVINFYSLIIPHWQHSFNLFAGGQFLLGFVAIDYVYYWSHRALHSKLLFPIHQVHHTVSQMDMVSCARNTFWSSLFLPYVWLNSLIIYLLHDARGYILAISCTYLLDLWRHSSLIINKKCWLHDCLNSWLILPQDHGLHHHQIGKGNFGANLKLWDKIHGTYLKNTLPNQLSISSGMGIKLELTLWQKLFWPLT”, the protein production was “failed”.

In the case of “MVVDSVTMEEEDTKEEAAMVATEGEDTKEEEDDTKEAVGDKEEGEVTAATAAATKVTMAAQGVVHMPEKRFRLSLVTKST”, the protein production is reported as “failed”.

With “MMNNVKYLSFALILAFSACKSGSASSQEPSEKQDTVKIFNLPQIPVVLNTVEQRTDYMVKHYWDRFDFSDTTYINQAEVPEQAWVDYCDLLEHVPLPVAQTAMKETFNRAEKNRKMLHFFEELADKYLYDPNSPMRNEEFYIPVLEALIASPALDETAKIRPQARLELAQKNRLGTKALNFTYTLDSGVKGTLYQFPAEYTLLFINNPGCHACAEMIEGLKASPVINGFTAAKKLKVLSIYPDEELDEWKKHRNDFAKEWTNGYDKELVIKNKNLYDLRAIPTLYLLDKNKTVLLKDATLQKVEQYLAERG” the protein production was “failed”.

With “MSANDKQYISYNNVHQLCQVSAERIKNFKPDLIIAIGGGGFIPARILRTFLKEPGVPTIRIFAIILSLYEDLNSVGSEVEEVGVKVSRTQWIDYEQCKLDLVGKNVLIVDEVDDTRTTLHYALSELEKDAAEQAKAKGIDTEKSPEMKTNFGIFVLHDKQKPKKADLPAEMLNDKNRYFAAKTVPDKWYAYPWESTDIVFHTRMAIEQGNDIFIPEQEHKQ” the protein production was “failed”.

For “MDIDASSCPELYARRAYGAEMTSQHQNTPSSEQIRRAPKVLLHDHLDGGLRPGTIVELARDAGYSGLPETDPDKLGIWFREAADSGSLERYLETFAHTCAVMQTRAALVRVAAECAEDLAADGVVYAEVRYAPEQHLEAGLSLEEVVEAVNEGFRAGERRAKEDGNRIRVGALLTAMRHAARALEIAELANRYRDAGVVGFDIAGAEAGFPPTRHLDAFEYLKRENNHFTIHAGEAFGLPSIWQALQWCGADRLGHGVRIIDDIQVREDGSVKLGRLASYVRDKRIPLELCPSSNLQTGAASSYADHPIGLLRRLHFRATVNTDNRLMSGTSMSREFEHLVDAFGYTLDDMAWFSVNAMKSAFIPFDERLAMINDVIKPGYAELKSEWLFKQTASTSSSAASEE”, the protein production was “not failed”.

For “MKKKLVIILSIICIIAGGYFTMEYLKHKEKEEFFWKTQETRVEKYIHYNVKDVKSITFIEHKISPMGIPSIEGYINDDKDLWFDASISTTENFEDKFSRSGELGKLIKDPEKSVSEIEKEEKEKKKELEHHHHHH”, the protein production was “not failed”.

In the case of “MPRTQKNDNFVDKSFTVMADIILKILPTNKKAKEAFVYYRDGMSAQAEGEYAEALEYYEEALTLEEDTNDRGYILYNMGLIYASNGDHDKALELYHQAIELNPRLPQALNNIAVIYHYQGEKAKETGDHDGGEALFDQAADYWIRAIRMAPNNYIEAQNWLKTTGRMQIDVFF”, the protein production is reported as “failed”.
